Measurements reported in the supplement of paper PMC10065799, “High-throughput profiling of sequence recognition by tyrosine kinases and SH2 domains using bacterial peptide display” (eLife, 2023).

How the values were obtained:
SHP2-C SH2 = experiment: SH2 binding enrichment of the phosphorylated peptide, bacterial display (enrichment ratio); higher = better substrate or ligand; peptides without Tyr show the background
c-Src SH2 = experiment: as above
Grb2 SH2 = Grb2 SH2 (UniProt P62993); experiment: as above
EPHB2 = EPHB2 (UniProt P29323); experiment: phosphorylation enrichment, bacterial display (enrichment ratio); higher = better substrate or ligand; peptides without Tyr show the background
Hck = Hck (UniProt P08631); experiment: as above
Hck, sequence (P08631 whole entry, looked up): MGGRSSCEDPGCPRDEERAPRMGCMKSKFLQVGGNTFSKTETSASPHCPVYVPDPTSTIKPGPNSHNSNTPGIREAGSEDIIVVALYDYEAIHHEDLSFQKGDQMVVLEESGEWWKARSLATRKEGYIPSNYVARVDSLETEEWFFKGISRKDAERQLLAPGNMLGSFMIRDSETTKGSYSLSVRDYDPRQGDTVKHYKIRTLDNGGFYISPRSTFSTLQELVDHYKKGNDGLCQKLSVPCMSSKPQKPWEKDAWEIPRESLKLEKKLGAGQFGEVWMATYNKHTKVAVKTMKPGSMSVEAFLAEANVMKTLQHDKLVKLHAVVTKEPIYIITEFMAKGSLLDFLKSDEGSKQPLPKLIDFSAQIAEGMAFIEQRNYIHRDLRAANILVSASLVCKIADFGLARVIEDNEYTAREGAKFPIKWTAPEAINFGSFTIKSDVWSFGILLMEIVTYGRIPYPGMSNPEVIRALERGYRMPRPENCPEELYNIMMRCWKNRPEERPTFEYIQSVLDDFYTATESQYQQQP

c-Src = experiment: as above
AncSZ = experiment: as above
Fer (mouse) = experiment: as above
EPHB1 = EPHB1 (UniProt P54762); experiment: as above
Jak2 = Jak2 (UniProt O60674); experiment: as above
Jak2, sequence (O60674 whole entry, looked up): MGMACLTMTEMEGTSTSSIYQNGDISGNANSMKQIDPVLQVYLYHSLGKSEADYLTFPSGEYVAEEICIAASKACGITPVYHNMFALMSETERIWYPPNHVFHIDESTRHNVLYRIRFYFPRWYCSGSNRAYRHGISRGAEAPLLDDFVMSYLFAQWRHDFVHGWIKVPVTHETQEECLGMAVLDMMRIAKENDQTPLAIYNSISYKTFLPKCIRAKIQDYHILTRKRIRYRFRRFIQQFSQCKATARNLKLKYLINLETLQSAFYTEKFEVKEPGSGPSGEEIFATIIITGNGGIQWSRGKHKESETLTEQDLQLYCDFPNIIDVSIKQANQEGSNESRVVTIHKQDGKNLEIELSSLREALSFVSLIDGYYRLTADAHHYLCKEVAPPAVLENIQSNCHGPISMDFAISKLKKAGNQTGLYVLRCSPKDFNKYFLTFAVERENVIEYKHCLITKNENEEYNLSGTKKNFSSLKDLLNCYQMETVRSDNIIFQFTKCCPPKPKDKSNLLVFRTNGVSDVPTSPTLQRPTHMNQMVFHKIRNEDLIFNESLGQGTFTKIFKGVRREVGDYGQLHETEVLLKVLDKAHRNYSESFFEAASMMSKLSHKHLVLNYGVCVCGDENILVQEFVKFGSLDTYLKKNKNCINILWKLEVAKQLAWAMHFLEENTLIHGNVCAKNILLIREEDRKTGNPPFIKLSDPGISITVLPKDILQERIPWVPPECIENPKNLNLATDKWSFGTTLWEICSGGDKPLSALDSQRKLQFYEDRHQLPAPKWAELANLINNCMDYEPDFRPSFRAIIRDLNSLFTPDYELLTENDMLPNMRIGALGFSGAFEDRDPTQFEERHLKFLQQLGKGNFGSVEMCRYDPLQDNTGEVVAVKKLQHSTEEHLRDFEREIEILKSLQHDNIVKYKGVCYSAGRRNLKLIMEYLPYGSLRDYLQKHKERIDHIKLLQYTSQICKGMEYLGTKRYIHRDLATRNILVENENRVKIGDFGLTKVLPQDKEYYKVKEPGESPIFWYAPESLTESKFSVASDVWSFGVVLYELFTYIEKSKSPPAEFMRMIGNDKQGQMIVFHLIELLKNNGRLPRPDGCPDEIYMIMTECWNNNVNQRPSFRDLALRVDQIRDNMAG

Fyn = Fyn (UniProt P06241); experiment: as above
Fyn, sequence (P06241 whole entry, looked up): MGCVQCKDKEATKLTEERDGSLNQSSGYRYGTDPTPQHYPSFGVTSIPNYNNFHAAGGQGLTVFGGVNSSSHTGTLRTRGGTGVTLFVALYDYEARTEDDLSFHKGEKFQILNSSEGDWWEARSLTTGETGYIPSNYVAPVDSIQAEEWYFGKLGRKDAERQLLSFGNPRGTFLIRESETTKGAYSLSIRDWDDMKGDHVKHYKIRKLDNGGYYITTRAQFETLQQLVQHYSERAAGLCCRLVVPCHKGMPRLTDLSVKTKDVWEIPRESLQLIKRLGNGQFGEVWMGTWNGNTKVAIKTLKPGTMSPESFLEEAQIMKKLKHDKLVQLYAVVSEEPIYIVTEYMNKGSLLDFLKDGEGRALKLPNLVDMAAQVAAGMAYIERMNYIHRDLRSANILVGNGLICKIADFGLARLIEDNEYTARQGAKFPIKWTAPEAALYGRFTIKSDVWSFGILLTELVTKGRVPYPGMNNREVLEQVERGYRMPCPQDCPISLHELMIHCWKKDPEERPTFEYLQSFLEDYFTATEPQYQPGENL

FGFR3 = FGFR3 (UniProt P22607); experiment: as above
c-Abl (mouse) = experiment: as above
Fes = Fes (UniProt P07332); experiment: as above
Fes, sequence (P07332 whole entry, looked up): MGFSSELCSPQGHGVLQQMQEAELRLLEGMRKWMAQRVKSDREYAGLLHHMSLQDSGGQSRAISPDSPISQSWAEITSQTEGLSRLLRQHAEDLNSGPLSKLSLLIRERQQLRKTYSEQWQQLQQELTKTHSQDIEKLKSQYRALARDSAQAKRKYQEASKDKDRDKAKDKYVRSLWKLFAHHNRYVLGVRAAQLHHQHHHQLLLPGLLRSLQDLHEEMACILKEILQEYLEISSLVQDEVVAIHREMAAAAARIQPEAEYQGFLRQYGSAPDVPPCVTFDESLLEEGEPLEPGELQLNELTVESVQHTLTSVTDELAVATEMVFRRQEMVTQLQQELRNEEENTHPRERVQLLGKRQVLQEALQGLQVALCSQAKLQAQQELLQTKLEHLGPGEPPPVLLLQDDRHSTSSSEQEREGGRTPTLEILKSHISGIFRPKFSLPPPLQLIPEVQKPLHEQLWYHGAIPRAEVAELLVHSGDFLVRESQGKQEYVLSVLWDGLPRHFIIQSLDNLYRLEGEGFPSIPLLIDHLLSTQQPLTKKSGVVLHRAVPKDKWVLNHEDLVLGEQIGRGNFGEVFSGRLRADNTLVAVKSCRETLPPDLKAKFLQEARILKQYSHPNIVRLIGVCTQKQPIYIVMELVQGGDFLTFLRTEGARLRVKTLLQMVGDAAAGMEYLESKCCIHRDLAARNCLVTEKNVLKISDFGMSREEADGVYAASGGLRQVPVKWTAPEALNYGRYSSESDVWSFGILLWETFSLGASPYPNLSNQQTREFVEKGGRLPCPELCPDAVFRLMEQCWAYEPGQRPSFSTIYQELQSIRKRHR

FGFR1 = FGFR1 (UniProt P11362); experiment: as above
FGFR1, sequence (P11362 whole entry, looked up): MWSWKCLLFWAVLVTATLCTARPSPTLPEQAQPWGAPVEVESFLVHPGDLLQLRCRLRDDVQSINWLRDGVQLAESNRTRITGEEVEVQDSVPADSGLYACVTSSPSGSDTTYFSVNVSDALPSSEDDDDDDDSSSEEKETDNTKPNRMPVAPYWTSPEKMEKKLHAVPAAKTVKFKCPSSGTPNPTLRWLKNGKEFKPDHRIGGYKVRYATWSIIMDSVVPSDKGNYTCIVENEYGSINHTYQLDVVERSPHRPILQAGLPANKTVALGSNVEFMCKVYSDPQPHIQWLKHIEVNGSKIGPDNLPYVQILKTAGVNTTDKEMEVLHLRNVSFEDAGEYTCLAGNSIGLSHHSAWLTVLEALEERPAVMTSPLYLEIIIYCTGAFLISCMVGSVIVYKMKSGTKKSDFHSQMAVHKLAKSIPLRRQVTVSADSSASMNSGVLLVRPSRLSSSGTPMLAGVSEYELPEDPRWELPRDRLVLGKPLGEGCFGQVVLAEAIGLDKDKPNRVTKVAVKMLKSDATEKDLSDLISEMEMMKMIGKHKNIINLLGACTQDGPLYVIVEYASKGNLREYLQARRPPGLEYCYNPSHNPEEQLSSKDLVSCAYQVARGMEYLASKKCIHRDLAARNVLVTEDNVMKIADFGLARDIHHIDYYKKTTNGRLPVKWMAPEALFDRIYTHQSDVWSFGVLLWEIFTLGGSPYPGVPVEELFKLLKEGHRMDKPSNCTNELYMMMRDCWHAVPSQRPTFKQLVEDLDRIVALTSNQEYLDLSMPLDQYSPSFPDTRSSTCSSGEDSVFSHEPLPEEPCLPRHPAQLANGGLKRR

MERTK = MERTK (UniProt Q12866); experiment: as above
MERTK, sequence (Q12866 whole entry, looked up, the tested form may be a part): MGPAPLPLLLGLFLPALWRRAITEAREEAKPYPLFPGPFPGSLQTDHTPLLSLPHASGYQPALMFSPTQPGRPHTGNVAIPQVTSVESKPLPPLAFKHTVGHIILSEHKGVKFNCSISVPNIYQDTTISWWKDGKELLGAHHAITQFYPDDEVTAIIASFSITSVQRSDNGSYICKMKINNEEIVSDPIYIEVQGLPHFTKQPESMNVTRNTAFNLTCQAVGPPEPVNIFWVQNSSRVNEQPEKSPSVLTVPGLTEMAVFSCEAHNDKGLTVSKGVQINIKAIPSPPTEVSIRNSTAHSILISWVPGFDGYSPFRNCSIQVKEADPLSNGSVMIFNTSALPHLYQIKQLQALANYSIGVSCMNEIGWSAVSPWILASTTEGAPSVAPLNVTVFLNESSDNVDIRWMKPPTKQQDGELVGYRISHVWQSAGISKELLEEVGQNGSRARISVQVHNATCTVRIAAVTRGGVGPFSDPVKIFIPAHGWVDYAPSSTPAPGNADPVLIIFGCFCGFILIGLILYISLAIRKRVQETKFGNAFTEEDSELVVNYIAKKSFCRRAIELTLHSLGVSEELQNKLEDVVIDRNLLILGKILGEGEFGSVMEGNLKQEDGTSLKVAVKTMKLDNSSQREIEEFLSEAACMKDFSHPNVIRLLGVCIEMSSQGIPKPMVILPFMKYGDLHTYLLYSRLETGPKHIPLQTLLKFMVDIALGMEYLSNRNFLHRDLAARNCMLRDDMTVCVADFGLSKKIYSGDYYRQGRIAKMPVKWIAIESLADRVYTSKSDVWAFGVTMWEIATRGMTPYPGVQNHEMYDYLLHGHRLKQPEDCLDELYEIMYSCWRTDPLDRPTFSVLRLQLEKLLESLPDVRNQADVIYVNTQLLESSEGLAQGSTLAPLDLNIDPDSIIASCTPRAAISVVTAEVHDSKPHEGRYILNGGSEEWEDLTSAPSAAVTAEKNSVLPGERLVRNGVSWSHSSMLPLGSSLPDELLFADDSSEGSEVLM
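Wherever SH2 binding enrichment of the phosphorylated peptide, bacterial display is given: peptide library displayed on the E. coli surface as eCPX fusions, selected cells deep-sequenced, score is each peptide's frequency after selection divided by its frequency in the input.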
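Wherever phosphorylation enrichment, bacterial display is given: 11-residue human phosphosite peptides and single-mutation variants displayed on the E. coli surface, counted by deep sequencing, each peptide's frequency after selection divided by its frequency in the unselected input library; frequency after pTyr selection over input frequency; kinase dosed for 20-30% of maximal phosphorylation in three min.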

Row | Sequence | SH2 binding enrichment (SHP2-C SH2) | SH2 binding enrichment (c-Src SH2) | SH2 binding enrichment (Grb2 SH2) | phosphorylation enrichment (EPHB2) | phosphorylation enrichment (Hck) | phosphorylation enrichment (c-Src) | phosphorylation enrichment (AncSZ) | phosphorylation enrichment (Fer (mouse)) | phosphorylation enrichment (EPHB1) | phosphorylation enrichment (Jak2) | phosphorylation enrichment (Fyn) | phosphorylation enrichment (FGFR3) | phosphorylation enrichment (c-Abl (mouse)) | phosphorylation enrichment (Fes) | phosphorylation enrichment (FGFR1) | phosphorylation enrichment (MERTK)
1 | SEPSGYQDNIA [DES_Y363_A360P] | 0.92 | 0.476 | 0.743 | 0.595 | 0.505 | 0.47 | 1.02 | 0.525 | 0.546 | 0.953 | 0.724 | 0.708 | 0.753 | 1.05 | 0.488 | 0.426
2 | SETDDYAEIID [PTK2_Y397] | 0.627 | 0.561 | 1.04 | 0.838 | 0.702 | 0.744 | 1.53 | 0.688 | 0.877 | 1.57 | 0.573 | 1.01 | 1.05 | 1.6 | 0.748 | 0.625
3 | SFGMVYEGNAR [INSR_Y1038] | 0.798 | 0.536 | 0.879 | 0.413 | 0.784 | 0.966 | 0.629 | 0.377 | 0.479 | 0.672 | 0.526 | 0.474 | 0.616 | 0.775 | 0.41 | 0.323
4 | SHNKFYMLVAH [MFSD8_Y134_R139H_YF] | 1.28 | 0.978 | 1.25 | 0.668 | 0.695 | 0.447 | 1.42 | 0.791 | 0.865 | 1.18 | 0.554 | 0.99 | 0.922 | 1.35 | 0.652 | 0.583
5 | SHRQDYLVGNK [GSTA1_Y147_G144R] | 0.802 | 0.501 | 0.55 | 0.431 | 0.397 | 0.385 | 0.441 | 0.334 | 0.488 | 0.466 | 0.435 | 0.415 | 0.867 | 0.665 | 0.324 | 0.311
6 | SIKGKYVTALY [KCNH2_Y611_D609G] | 0.776 | 0.472 | 0.826 | 0.374 | 0.465 | 0.318 | 0.498 | 0.329 | 0.366 | 0.431 | 0.432 | 0.357 | 0.517 | 0.552 | 0.367 | 0.358
7 | SLAARYFNWVC [FLT4_Y1230_S1235C_YF] | 1.59 | 1.43 | 2.08 | 0.656 | 0.435 | 0.397 | 1.21 | 0.546 | 0.61 | 0.997 | 0.38 | 0.822 | 0.899 | 1.2 | 0.661 | 0.514
8 | SLAARYYNWVS [FLT4_Y1230] | 2.19 | 3.84 | 14.2 | 0.83 | 0.569 | 0.746 | 1.06 | 0.817 | 0.756 | 1.48 | 0.512 | 3.55 | 0.933 | 1.15 | 5.38 | 5.97
9 | SLDLSYYTTSS [EMD_Y181_P183T] | 0.851 | 1.58 | 0.955 | 0.601 | 0.576 | 0.755 | 0.921 | 0.462 | 0.596 | 1.45 | 0.53 | 0.989 | 0.976 | 1.12 | 0.872 | 0.614
10 | SLIDGYFRLTA [JAK2_Y372_YF] | 5.5 | 1.13 | 1.01 | 0.716 | 0.583 | 0.483 | 1.1 | 0.514 | 0.539 | 5.46 | 0.493 | 0.875 | 0.732 | 1.26 | 0.605 | 0.429
11 | SLNEEYAKNKT [MSH2_Y563_T564A] | 0.759 | 0.482 | 0.949 | 0.579 | 0.362 | 0.45 | 0.765 | 0.318 | 0.394 | 0.791 | 0.413 | 0.538 | 0.674 | 0.877 | 0.472 | 0.43
12 | SNKLTYGTVVF [ACOX1_Y275_M278V] | 4.29 | 0.597 | 0.92 | 0.725 | 3.09 | 5.78 | 0.777 | 1.01 | 0.524 | 0.685 | 8 | 0.617 | 0.613 | 0.845 | 0.466 | 0.416
13 | SNNYIYTTLGV [FAM83B_Y639_K640T] | 2.71 | 0.725 | 0.883 | 4.29 | 7.83 | 5.7 | 1.07 | 6.62 | 7.5 | 1.28 | 8.37 | 4.56 | 2.88 | 1.1 | 6.21 | 8.17
14 | SRGLAYPARPA [LEMD2_Y122] | 0.606 | 0.413 | 0.825 | 0.332 | 0.339 | 0.335 | 0.359 | 0.288 | 0.328 | 0.401 | 0.331 | 0.266 | 0.386 | 0.419 | 0.34 | 0.339
15 | SSDKVCAHQMV [MLH1_Y379_Y379C] | 0.705 | 0.714 | 0.984 | 0.443 | 0.4 | 0.361 | 0.587 | 0.356 | 0.379 | 0.563 | 0.388 | 0.536 | 0.587 | 0.606 | 0.397 | 0.859
16 | SSSNPYSTVTV [ACTN2_Y599_M604V] | 12.3 | 3.35 | 0.667 | 0.359 | 0.82 | 1.29 | 0.432 | 9.71 | 0.342 | 0.383 | 0.733 | 0.483 | 0.567 | 0.597 | 0.745 | 0.464
17 | SSVKLYRVFCD [FGB_Y266_P265L_YF] | 0.633 | 0.395 | 0.665 | 0.668 | 0.514 | 0.47 | 0.945 | 0.469 | 0.579 | 0.935 | 0.468 | 0.749 | 0.648 | 1.12 | 0.487 | 0.41
18 | SSWKLYPRMLR [HAO1_Y50_R46S] | 0.803 | 0.516 | 0.904 | 0.463 | 0.433 | 0.366 | 0.773 | 0.454 | 0.457 | 0.635 | 0.404 | 0.472 | 0.539 | 0.871 | 0.44 | 0.432
19 | STGWSYAGVAV [KLHL3_Y577_R575W] | 0.965 | 0.529 | 0.718 | 0.454 | 0.581 | 0.462 | 0.929 | 0.616 | 0.515 | 0.69 | 0.416 | 0.549 | 0.463 | 0.776 | 0.484 | 0.352
20 | STLEVYSCHPP [IL21R_Y317] | 0.559 | 0.451 | 0.71 | 1.34 | 1.27 | 1.65 | 1.33 | 0.904 | 1.04 | 1.38 | 1.25 | 1.04 | 1.31 | 1.56 | 0.698 | 0.774

More lines, main results first:

Row | SH2 binding enrichment (SHP2-C SH2) | SH2 binding enrichment (c-Src SH2) | SH2 binding enrichment (Grb2 SH2) | Sequence | phosphorylation enrichment (EPHB2) | phosphorylation enrichment (Hck) | phosphorylation enrichment (c-Src) | phosphorylation enrichment (AncSZ) | phosphorylation enrichment (Fer (mouse)) | phosphorylation enrichment (EPHB1) | phosphorylation enrichment (Jak2) | phosphorylation enrichment (Fyn) | phosphorylation enrichment (FGFR3) | phosphorylation enrichment (c-Abl (mouse)) | phosphorylation enrichment (Fes) | phosphorylation enrichment (FGFR1) | phosphorylation enrichment (MERTK)
21 | 2.02 | 1.45 | 1.52 | SFCFRYRCAAQ [SUMF1_Y344_R349Q_YF] | 0.523 | 0.514 | 0.555 | 1.25 | 0.402 | 0.427 | 0.745 | 0.411 | 0.463 | 0.682 | 0.762 | 0.47 | 0.553
22 | 0.574 | 0.404 | 0.761 | SGFESYGSSSF [RPA2_Y9_YF] | 0.432 | 0.481 | 0.368 | 0.591 | 0.389 | 0.433 | 0.436 | 0.448 | 0.539 | 0.436 | 0.601 | 0.443 | 0.348
23 | 1.93 | 0.556 | 1.09 | SLHPGYNFRYA [P2RX7_Y291_Y288H] | 0.497 | 0.492 | 0.454 | 0.657 | 0.442 | 0.351 | 0.925 | 0.424 | 0.545 | 0.637 | 0.949 | 0.431 | 0.622
24 | 0.71 | 0.542 | 1.07 | SPYAVYLFFTF [RPGRIP1_Y826_R827L] | 0.487 | 0.569 | 0.748 | 0.928 | 0.628 | 0.47 | 0.783 | 0.617 | 0.87 | 0.797 | 1.08 | 0.446 | 0.533
25 | 0.574 | 0.447 | 0.728 | SPYAVYRFFTF [RPGRIP1_Y826] | 0.555 | 1.21 | 2.4 | 1.08 | 0.875 | 0.714 | 1.12 | 1.79 | 0.783 | 1.67 | 1.33 | 0.784 | 0.797
26 | 0.802 | 0.773 | 0.869 | SSAKTYSRMRL [NBEAL2_Y1835_E1833K] | 0.366 | 0.453 | 0.427 | 0.433 | 0.379 | 0.354 | 0.52 | 0.406 | 0.394 | 0.542 | 0.552 | 0.34 | 0.4
27 | 0.898 | 1.39 | 0.812 | SSQTIYQRVEG [TFR2_Y23_V22I] | 1.41 | 2.71 | 1.6 | 0.756 | 1.24 | 1.5 | 0.525 | 0.771 | 0.602 | 0.814 | 0.716 | 0.562 | 2.74
28 | 10.7 | 1.76 | 0.834 | SSVAGYACLAF [MVD_Y131_A128V_YF] | 0.537 | 0.556 | 0.519 | 0.903 | 0.511 | 0.562 | 0.961 | 0.478 | 0.792 | 0.949 | 1.21 | 0.516 | 0.631
29 | 0.553 | 0.472 | 0.812 | STEAIYRRFSK [SH3PXD2B_Y42_YF] | 0.293 | 0.379 | 0.45 | 0.431 | 0.402 | 0.334 | 0.353 | 0.506 | 0.408 | 1.2 | 0.486 | 0.493 | 0.372
30 | 0.688 | 0.376 | 0.689 | SVESPYGSVTF [NDRG2_Y47_T45S] | 0.862 | 5.03 | 5.95 | 0.662 | 9.44 | 0.501 | 0.572 | 7.99 | 0.496 | 0.57 | 0.696 | 0.456 | 0.525
31 | 0.719 | 0.471 | 0.86 | SVMAEYGLFGA [VSX2_Y219_YF] | 0.596 | 2.94 | 6.17 | 0.737 | 0.424 | 0.477 | 0.679 | 7.22 | 0.553 | 0.594 | 0.774 | 0.488 | 0.475
32 | 0.738 | 1.06 | 0.877 | SVVMPYEPPEV [TP53_Y220_V218M] | 0.595 | 0.481 | 0.482 | 1.27 | 0.549 | 0.559 | 0.897 | 0.56 | 0.674 | 0.66 | 1.12 | 0.559 | 0.492
33 | 0.794 | 0.576 | 0.755 | SVVVPDEPPEV [TP53_Y220_Y220D] | 0.665 | 0.567 | 0.522 | 1.33 | 0.647 | 0.706 | 1.19 | 0.582 | 0.687 | 0.782 | 1.39 | 0.724 | 0.586
